The series is described as follows: soluble on expression in E. coli; label from the status in PepcDB or PDB records.
For “MMINRINLTDIRSFVLIARLGNFTKAAETLDVSRSHVSRQISSLEKQMGVTLLIRTTRTLRLTEAGKHFYHQCEQALHTIDQALLSAVDDVEKVQGEIKINCVGGYLGEVFLADIVNTFMQQYPDVSISLDFSSNRVDLIEEEFDIAFRMGSLEDSGFVAKKLLDIEMGTLASPKYLQQYGRPSHPKELQQHHCLTGSVRKWHFQSLVNKEHYDVSIKGNLQCKNGRVLVAGAIAGNGIIRVPLIYCQQELDDKKLVQVFEEWGIPTVDFSAIYHRDRYQPKRIRTFIDFVKQYSDSLFT”, the “soluble on expression in E. coli” value is listed as “not soluble”.

For the sequence “MLITISVARSENYYCVQVASSEKLEDLIPLFEKFKNMDNVRIEKIGGFYTLRIGFYLNKSDVLKILPEIKEKYRDAFVRVCEYDLSRVVFPKPEKVITLEQQEIEESKTTKENFLMLLEKNIEELKKLTEIIARGNTTKVKPFEKLESTVVEMYKQKEKSYKRAFPLYINGEFRYRGKALTGENLLGDKWYSYLGLKLSFFRRGFADFKYEKERAKFAKLFSEFDIQKEYTYLLAFQSQEEVFLKGLKYELGVVESEKNKTLSLLKDWVKFTESYDKSLGFPYRELIKKEELEGIESVSNGFFLKPMKINVEEFMKYYEKRKKDVEEYLKKFEIKTTDKWFYLRHTDLDVFARYYFAGKDGNTRDFWALGLRFELPIPYIITDLGKVDKLEILSFKERARLSYATTYSFLFDYISRINRNYSNIVNHLEQINVNFLEIEREIYFWKNGLREANYTLILRNLLDTYHRLEQLIYLKYINYVYIQKLIYFMDIKEEEIIRRILDG”, the “soluble on expression in E. coli” value was “not soluble”. To “MYIPKYFKVTNAEEIWNFVQENSFGTVVTTEQGKPIATHLPLGFNKKDDHYYITGHFAYGNPQWRTFEACEDVLVMFQGPHAYISSSWYSRENVPTWNYQAVHMYGKASMLEKDELAEELTIMLEQKTPTQAFSVLWDKLSPKLLESELKGIVGFKIKVEDIQAAYKLSQNRNETDYMNVIEQLQNEENPNAKQMAELMEDKLKKQI” belongs “not soluble”. To “MAKRVVSVSLGSSRRDAAAEVELLGERVLLERRGTDGDFQRALCLIQELDGKVDAIGLGGIDLYLFAGGRRYAIRDALRLKEAAKKTPVVDGSGLKHTLERRAVRELASLIDWRKTKVLLPSAVDRFGLAEALDEAGARVLYGDFIFALGLPIPLYSLSFLQKLAFLLLPLFTRLPFSVLYPTGKKQEEVREDWRARYYAWADVVAGDWHYVRRHMPKDMRGKTVITNTTTEEDVAFLRERGVRRLVTTTPRLGGRSFGTNVMEAMLVALAGRELGEADYLRYIDQIGLKPQVLELKGQA” belongs “soluble”. To “MQFPVLQESSQSALPQLTGILSSLIVTEEVKAAETDAIMAANTGKSEIVQVTYKLFGLIPFKSSAIQVMPQLKLLPGGQSIGVSLQAKGVMVVGQAAVQNQEGKLVYPAKEAGIEVGDIILKIDGREMNSDQDVANAIHRAGEKQGFSEILLNHNGQTMQKRVSTVYCPETNRHRVGLYVRNEAAGVGTLTFYDPTNHKYGALGHVINDVDTNQKIEILNGNVVASTIYAIEKGKRGHPGEKIGSFVNQSKFSGNIEKNTVSGIFGSLEGEIKNPYFQEPITVGWESEIKEGPAKIYTVLEGERIEEYDVQIERIMHNRTDSKNMVIKVTDPELVEKTGGIIQGMSGSPIVQDGKIIGAVTHVFVNDASRGYGVFIQNMLKDADIIDKKEVALEHHHHHH” belongs “not soluble”; to “MKHQHQHQHQHQHQQPLNEEFRPEMLQGKKVIVTGASKGIGREMAYHLAKMGAHVVVTARSKETLQKVVSHCLELGAASAHYIAGTMEDMTFAEQFVAQAGKLMGGLDMLILNHITNTSLNLFHDDIHHVRKSMEVNFLSYVVLTVAALPMLKQSNGSIVVVSSLAGKVAYPMVAAYSASKFALDGFFSSIRKEYSVSRVNVSITLCVLGLIDTETAMKAVSGIVHMQAAPKEECALEIIKGGALRQEEVYYDSSLWTTLLIRNPSRKILEFLYSTSYNMDRFINK”, “soluble”; to “MTTAFFVAADWLAEHIDDPEIQILDARMAPPGQEHRDMAGEYRAGHIPGALFFDIEALSDRASPLPHMMPRPEAFAVAMRELGVRQDKHLVIYDEGNLFSAPRAWWMLRTFGAEKVSILAGGLAGWQRDEWLLREGEEAHEGGEFEAKFAPQAVVRLTDVLLASHEKTAQIVDARPAARFNAQADEPRPGLRRGHIPGALNVPWTELVYEGELKTTDELNEVFFSHGVSFDRPIIASCGSGVTAAVVVLALATLDVPDVTLYDGAWSEWGARTDLPVEPA”, “not soluble”. Take “MGSDKIHHHHHHVTIPTQAKFTLRGRNPDVLSCIANLSNDEVFTPPEFAARMLDTLAQAWAEDHGGANLWADPTVRFLDPCTKSGVFLREITRRLVEGLAEQMPDLQKRVDHILTRQVFGIGITRLTALLARRSVYCSKYANGPHSIAKSFTTEAGNIWFERVEHTWKNGRCVYCGASQGTLDRGEELESHAYAFIHTDDIKTRITEIFGDDMQFDVIIGNPPYQLASDGGTRDIPIYQHFVEQAKKLDPKYLVMVIPSRWMASGLGLSEFRQTMLADRRIRELVDFPVATEVFPGVEVKGGVCYFLWNAAREGDCNVTTVRGEELRSCTLQF”: the “soluble on expression in E. coli” value is given as “not soluble”. The result for “MKRAVVVFSGGQDSTTCLVQALQQYDEVHCVTFDYGQRHRAEIDVARELALKLGARAHKVLDVTLLNELAVSSLTRDSIPVPDYEPEADGIPNTFVPGRNILFLTLAAIYAYQVKAEAVITGVCETDFSGYPDCRDEFVKALNHAVSLGMAKDIRFETPLMWIDKAETWALADYYGKLDLVRNETLTCYNGIKGDGCGHCAACNLRANGLNHYLADKPTVMAAMKQKTGLR” reads “not soluble”; that for “MFSVYAHRVAAVKDEENGAVKKVTDSVENYNSENRFERTIIVANDNKTAILLILRLKQDGVKTSVFTNYLADDEIVLGEQKKAFVEGAHKVAVCTTQMFEKMEFDVVKHYIFVDAPAEEKLRDQLRQKAVCEGKKIRVDLVMSESYEVSVKVEEKPAEASKPSPKRKCSFDIYSIKPNKQGKFVIPAEYMGFDESAEDDEYDSEYDDDDYNPFKWLGF”, “not soluble”. To “MTDSTTLYPVFAEELLPGGGHRSFILKRGELLRLTDLNGNANVSLTLLNAHEKTERLNLPDSLKCQHTAKLSNGHCLYSDMGRVLAAIVTDTCGWSDSIGGVLNAQEVAEKYGQGRYQELRNGFFRNGVDNLLVELGKWGLGLSDLLMTLNLFSRVDVSETGTLHFAPNNSKAGDYIELYAPMDTLVVLTALQHPMDPNPDYVPQPLTLSWMKADASVAEHCRTSRPENERGFINTDRLFALEHHHHHH” belongs “soluble”; to “GMVEPMTPRFKYTKASQENIQQLGNILEQCFVMSFGDSEIYVKGIGLENFRVIYREQKVAGGLAILPMGQWWGGQRVPMAGIAAVGIAPEYRGDGAAIALIQHTLQEISEQDIPISVLYPATQRLYRKAGYEQAGSSCVWEIPTDSIQIQHASLPLEPVVLKNNPIFHELYQQQAQLTHGYLDRHPAIWQGLNRTLDTETLYSYLIGDKDKPQGYIIFTQERTRDGSILRIRDWVTLSNPAVQSFWTFIANHRSQIDKVTWKSSVIDALTLLLPEQSATIRSQDRWMLRIVNVCKALEARGYPLGVEAELHLEVQDDLLATNQGKFILSVANGKSEVTKGGKGELQLDIKGLASLYTSLFTPRQLQLTGKLQATETALLKATQIFAGESPWMIDFF”, “soluble”.

Consider “MGLKIGDIVSRKSYGSDILFKVVDIKYEKGRKIVVLKGICYRLEADAPETDLIVQPDSYVREYNARVNRAINEKLKSLNESLMREKTKKKFFRDAAKENNENFPRPGKVLHVDGDSDYLDTCMEEYRKLGMDAVGVYVKEKEQPLKIYNLLKEHKPDILVLTGHDGVIKSEKGYSDITNYRNSKYFVEAVREARRFDGNLDSLVIFAGACQSMFKKIIEAGANFASSPYRVLIHALDPVMVCEKIAFTSINQVISPQDVISKTITGVKGIGGIETRGKYRDGFPREPYNIK”, for which the “soluble on expression in E. coli” value is on record as “soluble”. The result for “MGSDKIHHHHHHLKALVVGLGSIGVRHLNNLHALEVRELGVVRSRNFPPPTEIVPKDIAVFQDIDLALSRKFDLVVVANPTSLHLETLIKALRAGSHVYVEKPVAHEKRRLSELTRYVSLDGPRVLVGCQFRMHPGLRKIEGWIRQGKLGKIHSVQVDLGEYLPGWHPWEDYRQSYAARADQGGGVVLTLIHELDYLHWLFGKPKSVFAIGGHRTSLDITAEDTALITFETEQDICVQLRMDYWRKPPVRHMNIVAENAIVDWDYPTRLTTLRQNGQVLDEMVLVPSWDRNELFLSMMKEFIEGIPRGSIPRVTLRDGIEVLKTALAVKKSLQTHRKVAL” reads “not soluble”.

As for “MGSDKIHHHHHHMAIVNRIALDLAKDFIQVLALDENEQEVFNKKLRSNKVLAKLATLSRTDDCEVAVESCGMSHYWRRECEKLGYKTVALPPRFVKAYLQGEKNDANDARAIAEAASRPNRQTVRLKSIEQQDLALMVNQREGFVQTRTQFSNRLRGQLAEYGILLPKRVGTILQRVPEVLEDDSNALTLQSRDLINRLYQMLRAVDEEVKALDKHLATQAERNEDSQRLMTLPGIGPITATSLLALIGDVSEFKRGRNLSEYLGLVPRQNSSGGKDRLGGITKKGNTKLRTLLVHGARSALRVAQQRHDRLSLWAQDVAKRRGNNVAAVALANKHARIIWAMLKNKEDYRMTAA”, the “soluble on expression in E. coli” value is given as “not soluble”. To “MSAIDCIITAAGLSSRMGQWKMMLPWEQGTILDTSIKNALQFCSRIILVTGYRGNELHERYANQSNITIIHNPDYAQGLLTSVKAAVPAVQTEHCFLTHGDMPTLTIDIFRKIWSLRNDGAILPLHNGIPGHPILVSKPCLMQAIQRPNVTNMRQALLMGDHYSVEIENAEIILDIDTPDDFITAKERYTEILEHHHHHH” belongs “soluble”. As to “MAHHHHHHMSSHQILITAPEVYSKRFAQALEARSLIPMAVPVIETIATPDTADMRALLEQDLNGIDYIAFCSRCAVDSLSAALDHRYGGGGESVSERAGSAPAVNEDRRATAVVKVLAKCALAAIGKDADYVFERLRIRTTICPDEPSPAGIAAKLAESGRAEGRTIAVLAPCVEGFTEPDVVPRFVDQLKGMGMKVVRVDAYMTRPVSEEAVSAAVTALKNGSVRGVAFTSAGEIAVLLRRSPQCLMNIDVACFGPYTAGFAAKHGVKVSCVAKDFRSFDGFAATIEQHYASR”, the “soluble on expression in E. coli” value was “soluble”.

“MGSDKIHHHHHHADGRYIEVTGTSEIEIVPDRIHYIIEIREYFEEEFDGRSKPEEYRTKISLDRIEQGLREVLHDAGISPNAVRTQEIGDYWRKQGQDFLVAKTFDITLLDFKQIDEILKRMDTKGIHTMRIGELENKDMLSYHQKGKIAALKAAQRKASYLVEALGKKLGPVIRIVEDEAGSSLPFSQSNVLSSSVVSFDSFRTIKKKYSMLVRFEIAD”: the “soluble on expression in E. coli” value was “not soluble”. To “MNVMDTHPDGRAIAHLAERIRAGLIGHEILVERLMTALLTGGHVLIEGAPGLAKTRAVKRLAQGLDGSFARIQCTPDLMPSDLTGTQVFRRQSESFDFVPGPIFHSLVLVDEINRAPPKVQSALLEAMAEGQVTAGGVTRPLPDPFMVVATQNPIEHEGTFPLPEAQLDRFLLHVDLAMPGAEAERAILDLVEGEAREAALPAGRPLELAELRRARAAVAGIHLAPALRDFIVRLVIATRETEGSPLEGLIEHAVSPRGTLALAASARSRALLHGRDHALPEDVEALAPDALAHRLVPSWRATSEGISARGIVARLLPHVRPWLEHHHHHH” belongs “not soluble”.

Values taken from the DeepSol protein solubility set.
